Biological target: SARS-CoV RBD (residues 306-527 of the spike protein) (SARS-CoV) (UniProt P59594)

Question: CR3022 IgG (antibody) was tested. Which pseudovirus neutralization assay (SARS-CoV spike on pseudovirus), IC50 did it give?
Answer: 5.2 µg/mL

— paper PMC7744049
